Results on 5 molecules are retold here after patent US20150125444A1 (AstraZeneca / MedImmune, published 2015).

For test [1], the target named is Human FcRn (extracellular domain) (human, UniProt P55899 24-297). Put plainly: SPR (ProteOn XPR36), antibody immobilised, steady state, pH 6.0. The protocol:
(§1) Experiments were performed using the ProteOn XPR36 surface plasmon resonance system (Bio Rad). Phosphate buffered saline with 0.005% Tween 20 (PBS/Tween), pH 7.4 was used as running buffer for most experiments with the exception of Human FcRn (extracellular domain) binding in which Phosphate buffered saline with 0.005% Tween 20 (PBS/Tween), pH 6.0 was used. All experiments were performed at 25° C. Antibodies were immobilized on a ProteOn™ GLC Sensor Chip (#176-5011) using EDAC (1-Ethyl-3-[3-dimethylaminopropyl]carbodiimide) and sulfo-NHS (N-hydroxysulfosuccinimide) to an R.U. (response unit) level of 4000-6000. C1q, FcγRI, FcγRIIa, FcγRIIb, FcγRIII(158V), FcγRIII(158F), and FcRn were then flowed over the IgG immobilized surface at various concentrations at a rate of 25 μl/minute for a long enough period of time to achieve steady state, or near steady state. Binding (if any could be determined) was quantified via steady state equilibrium binding analysis using the ProteOn software. Human FcγRI, FcγRIIa, FcγRIIb, FcγRIII(158V), FcγRIII(158F), and FcRn extracellular domains were generated via mammalian expression vectors in house. Human C1q was obtained from Quidel (CA).

In test [2] the target is T1, Human FcγRIIIa (158V) extracellular domain (human, UniProt P08637 17-208).
T1 construct: extracellular domain; Position 158 is the usual allotype numbering (mature protein), not the precursor numbering of the database entry; also called FcγRIII(158V)
T1 sequence (P08637 17-208 F176V): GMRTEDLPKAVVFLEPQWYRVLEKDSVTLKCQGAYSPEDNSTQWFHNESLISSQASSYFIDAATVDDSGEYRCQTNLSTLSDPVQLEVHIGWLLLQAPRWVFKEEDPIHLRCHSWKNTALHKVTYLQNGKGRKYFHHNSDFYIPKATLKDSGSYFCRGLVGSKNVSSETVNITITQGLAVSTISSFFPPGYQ
Put plainly: SPR (ProteOn XPR36), antibody immobilised, steady state, pH 7.4. On the procedure:
as §1

Test [3] has as its target T2, Human C1q (human, UniProt P02745 23-245; P02746 28-253; P02747 29-245).
T2 construct: Bought complement protein; In the CDC assay C1q came with human serum
The test is described as above. The protocol: as §1

In test [4] the target is T3, Human FcγRIIb extracellular domain (human, UniProt P31994 43-217).
T3 construct: extracellular domain
T3 sequence (looked up): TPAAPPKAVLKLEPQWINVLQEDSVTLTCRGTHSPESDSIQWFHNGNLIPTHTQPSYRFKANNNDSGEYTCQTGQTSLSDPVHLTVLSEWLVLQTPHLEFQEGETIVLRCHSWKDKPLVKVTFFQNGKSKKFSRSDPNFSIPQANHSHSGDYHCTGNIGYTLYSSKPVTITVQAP
The description is as above. The protocol:
as §1

Test [5] has as its target T4, Human FcγRIa extracellular domain (human, UniProt P12314 16-292).
T4 construct: extracellular domain
The description is as above. On the procedure: as §1

Test [6] deals with T5, Human FcγRIIIa (158F) extracellular domain (human, UniProt P08637 17-208).
T5 construct: extracellular domain; also called FcγRIII(158F)
T5 sequence (P08637 17-208): as the sequence (P08637 17-208 F176V) above, with V160F counted along it
The test is described as above. The protocol: as §1

The target of test [7] is T6, Human FcγRIIa extracellular domain (human, UniProt P12318 34-217).
T6 construct: extracellular domain
T6 sequence (looked up): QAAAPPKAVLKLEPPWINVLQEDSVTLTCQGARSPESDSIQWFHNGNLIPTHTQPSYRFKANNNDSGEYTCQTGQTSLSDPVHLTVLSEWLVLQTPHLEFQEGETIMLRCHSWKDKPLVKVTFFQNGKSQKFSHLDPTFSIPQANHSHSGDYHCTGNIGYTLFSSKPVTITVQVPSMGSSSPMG
The test is described as above. On the procedure: as §1

Human FcRn (extracellular domain), sequence (P55899 24-297): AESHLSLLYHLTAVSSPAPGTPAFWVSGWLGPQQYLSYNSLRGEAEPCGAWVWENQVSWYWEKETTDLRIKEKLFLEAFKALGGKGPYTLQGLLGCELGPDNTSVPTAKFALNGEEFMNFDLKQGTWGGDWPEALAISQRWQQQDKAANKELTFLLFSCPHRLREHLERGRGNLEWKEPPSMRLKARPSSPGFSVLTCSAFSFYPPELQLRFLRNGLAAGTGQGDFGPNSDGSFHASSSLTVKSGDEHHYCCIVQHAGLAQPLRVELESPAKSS
T2 sequence (P02745 23-245 limits assumed, chain 1 of 3): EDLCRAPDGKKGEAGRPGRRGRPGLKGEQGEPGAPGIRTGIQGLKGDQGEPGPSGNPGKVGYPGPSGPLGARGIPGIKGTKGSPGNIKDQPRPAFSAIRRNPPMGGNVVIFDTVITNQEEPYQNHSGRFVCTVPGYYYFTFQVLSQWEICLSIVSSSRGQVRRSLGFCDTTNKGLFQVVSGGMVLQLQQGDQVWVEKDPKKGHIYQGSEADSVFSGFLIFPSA
T2 sequence (P02746 28-253 limits assumed, chain 2 of 3): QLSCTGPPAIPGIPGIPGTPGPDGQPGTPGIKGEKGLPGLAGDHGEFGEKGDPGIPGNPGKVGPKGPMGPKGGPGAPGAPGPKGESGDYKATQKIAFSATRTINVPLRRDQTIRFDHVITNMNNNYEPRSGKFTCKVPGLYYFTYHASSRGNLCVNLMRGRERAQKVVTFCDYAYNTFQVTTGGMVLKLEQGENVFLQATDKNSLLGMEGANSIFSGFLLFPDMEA
T2 sequence (P02747 29-245 limits assumed, chain 3 of 3): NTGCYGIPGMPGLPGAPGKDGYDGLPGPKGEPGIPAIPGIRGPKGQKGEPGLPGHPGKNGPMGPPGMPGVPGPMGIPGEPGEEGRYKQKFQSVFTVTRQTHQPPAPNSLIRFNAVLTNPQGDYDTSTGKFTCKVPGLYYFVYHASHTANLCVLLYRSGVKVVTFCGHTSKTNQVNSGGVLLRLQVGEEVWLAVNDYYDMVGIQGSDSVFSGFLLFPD
T4 sequence (P12314 16-292): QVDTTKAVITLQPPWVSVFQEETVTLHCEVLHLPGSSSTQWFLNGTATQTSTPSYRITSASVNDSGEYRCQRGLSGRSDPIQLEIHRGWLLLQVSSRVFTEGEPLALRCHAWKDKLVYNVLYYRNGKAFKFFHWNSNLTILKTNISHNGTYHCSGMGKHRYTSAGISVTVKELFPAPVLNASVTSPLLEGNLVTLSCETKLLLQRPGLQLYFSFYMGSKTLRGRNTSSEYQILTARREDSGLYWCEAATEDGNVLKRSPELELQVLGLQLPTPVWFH

B1: Ab4 (anti-C5a antibody 1B8) with wild-type IgG1 Fc domain (antibody)
heavy: not shown
light: QSALTQPPSASGTPGQRVTISCSGTNSNIGSNYVFWYQQLPGTAPKLLIFESNRRPSGVPDRFSGSKSDTSASLAISGLRSEDEADYYCATWDDTLIAPVFGSGTKVTVLGQPKANPTVTLFPPSSEELQANKATLVCLISDFYPGAVTVAWKADSSPVKAGVETTTPSKQSNNKYAASSYLSLTPEQWKSHRSYSCQVTHEGSTVEKTVAPAEC
notes: Full human IgG1 lambda antibody; also called Ab4 WT; WT
As a reminder, the Kd is the free concentration of one partner at which half of the binding sites on the other are occupied at equilibrium, for simple one-to-one binding. Turning to B1, the Kd was found to be 1070 nM in test [1]; 380 nM in test [2]; 250 nM in test [3]; 2500 nM in test [4]; 31 nM in test [5]; 1600 nM in test [6]. The Kd in test [7] is 1000 nM.

B2: Ab4 (anti-C5a antibody 1B8) with YTE variant IgG1 Fc domain (antibody)
heavy: EVQLLESGGGLVQPGGSLRLSCAASGFTFSSYVMNWVRQAPGKGLEWVSSISPSGGRTWYADSVKGRFTISRDNSKNTLYLQMNSLRAEDTAVYYCARSDGSAAGFLGYWGQGTLVTVSSASTKGPSVFPLAPSSKSTSGGTAALGCLVKDYFPEPVTVSWNSGALTSGVHTFPAVLQSSGLYSLSSVVTVPSSSLGTQTYICNVNHKPSNTKVDKRVEPKSCDKTHTCPPCPAPELLGGPSVFLFPPKPKDTLYITREPEVTCVVVDVSHEDPEVKFNWYVDGVEVHNAKTKPREEQYNSTYRVVSVLTVLHQDWLNGKEYKCKVSNKALPAPIEKTISKAKGQPREPQVYTLPPSREEMTKNQVSLTCLVKGFYPSDIAVEWESNGQPENNYKTTPPVLDSDGSFFLYSKLTVDKSRWQQGNVFSCSVMHEALHNHYTQKSLSLSPGK
light: QSALTQPPSASGTPGQRVTISCSGTNSNIGSNYVFWYQQLPGTAPKLLIFESNRRPSGVPDRFSGSKSDTSASLAISGLRSEDEADYYCATWDDTLIAPVFGSGTKVTVLGQPKANPTVTLFPPSSEELQANKATLVCLISDFYPGAVTVAWKADSSPVKAGVETTTPSKQSNNKYAASSYLSLTPEQWKSHRSYSCQVTHEGSTVEKTVAPAEC
notes: Full IgG1; also called Ab4 YTE
As for B2, the dissociation constant Kd was 270 nM in test [1]; 820 nM in test [2]; 400 nM in test [3]; 3600 nM in test [4]; 43 nM in test [5]; 2800 nM in test [6]. This molecule also registered a Kd in test [7] of 1900 nM.

B3: Ab4 (anti-C5a antibody 1B8) with FQG-YTE variant IgG1 Fc domain (antibody)
heavy: EVQLLESGGGLVQPGGSLRLSCAASGFTFSSYVMNWVRQAPGKGLEWVSSISPSGGRTWYADSVKGRFTISRDNSKNTLYLQMNSLRAEDTAVYYCARSDGSAAGFLGYWGQGTLVTVSSASTKGPSVFPLAPSSKSTSGGTAALGCLVKDYFPEPVTVSWNSGALTSGVHTFPAVLQSSGLYSLSSVVTVPSSSLGTQTYICNVNHKPSNTKVDKRVEPKSCDKTHTCPPCPAPEFQGGPSVFLFPPKPKDTLYITREPEVTCVVVDVSHEDPEVKFNWYVDGVEVHNAKTKPREEQYNSTYRVVSVLTVLHQDWLNGKEYKCKVSNKALPAGIEKTISKAKGQPREPQVYTLPPSREEMTKNQVSLTCLVKGFYPSDIAVEWESNGQPENNYKTTPPVLDSDGSFFLYSKLTVDKSRWQQGNVFSCSVMHEALHNHYTQKSLSLSPGK
light: QSALTQPPSASGTPGQRVTISCSGTNSNIGSNYVFWYQQLPGTAPKLLIFESNRRPSGVPDRFSGSKSDTSASLAISGLRSEDEADYYCATWDDTLIAPVFGSGTKVTVLGQPKANPTVTLFPPSSEELQANKATLVCLISDFYPGAVTVAWKADSSPVKAGVETTTPSKQSNNKYAASSYLSLTPEQWKSHRSYSCQVTHEGSTVEKTVAPAEC
notes: Full IgG1; also called Ab4 FQG-YTE
Turning to B3, binding in test [1] was characterised by a dissociation constant (Kd) of 350 nM. Further, the binding result in test [2], in test [3], in test [4], in test [5], in test [6] and in test [7] was “no binding” throughout.

B4: Ab4 (anti-C5a antibody 1B8) with FQQ-YTE variant IgG1 Fc domain (antibody)
heavy: EVQLLESGGGLVQPGGSLRLSCAASGFTFSSYVMNWVRQAPGKGLEWVSSISPSGGRTWYADSVKGRFTISRDNSKNTLYLQMNSLRAEDTAVYYCARSDGSAAGFLGYWGQGTLVTVSSASTKGPSVFPLAPSSKSTSGGTAALGCLVKDYFPEPVTVSWNSGALTSGVHTFPAVLQSSGLYSLSSVVTVPSSSLGTQTYICNVNHKPSNTKVDKRVEPKSCDKTHTCPPCPAPEFQGGPSVFLFPPKPKDTLYITREPEVTCVVVDVSHEDPEVKFNWYVDGVEVHNAKTKPREEQYNSTYRVVSVLTVLHQDWLNGKEYKCQVSNKALPAPIEKTISKAKGQPREPQVYTLPPSREEMTKNQVSLTCLVKGFYPSDIAVEWESNGQPENNYKTTPPVLDSDGSFFLYSKLTVDKSRWQQGNVFSCSVMHEALHNHYTQKSLSLSPGK
light: QSALTQPPSASGTPGQRVTISCSGTNSNIGSNYVFWYQQLPGTAPKLLIFESNRRPSGVPDRFSGSKSDTSASLAISGLRSEDEADYYCATWDDTLIAPVFGSGTKVTVLGQPKANPTVTLFPPSSEELQANKATLVCLISDFYPGAVTVAWKADSSPVKAGVETTTPSKQSNNKYAASSYLSLTPEQWKSHRSYSCQVTHEGSTVEKTVAPAEC
notes: Full IgG1; also called Ab4 FQQ-YTE
In test [1], B4 showed a Kd of 290 nM. Also, the binding result in test [2], in test [3], in test [4], in test [5], in test [6] and in test [7] was “no binding” in each case.

B5: Ab3 (anti-CD20 antibody HB20.3) with YTE variant IgG1 Fc domain (antibody)
heavy: QVQLQQPGAELVKPGASVKMSCKASGFTFTNYNMHWLKQTPGQGLEWIGAIYPENGDTSYNQKFKGKATLTADKASSTAYMHLSSLTSEDSAVYFCARFYYYGSYYGAMDYWGQGTSVTVSSASTKGPSVFPLAPSSKSTSGGTAALGCLVKDYFPEPVTVSWNSGALTSGVHTFPAVLQSSGLYSLSSVVTVPSSSLGTQTYICNVNHKPSNTKVDKRVEPKSCDKTHTCPPCPAPELLGGPSVFLFPPKPKDTLYITREPEVTCVVVDVSHEDPEVKFNWYVDGVEVHNAKTKPREEQYNSTYRVVSVLTVLHQDWLNGKEYKCKVSNKALPAPIEKTISKAKGQPREPQVYTLPPSREEMTKNQVSLTCLVKGFYPSDIAVEWESNGQPENNYKTTPPVLDSDGSFFLYSKLTVDKSRWQQGNVFSCSVMHEALHNHYTQKSLSLSPGK
light: DIQMTQSPASLSASVGETVTITCRASGNIHNYLAWYQQKQGKSPQLLVYNAKTLADGVPSRFSGSGSGTQFSLKINSLQPEDFGSYYCQHFWSTPWTFGGGTKLEIKRTVAAPSVFIFPPSDEQLKSGTASVVCLLNNFYPREAKVQWKVDNALQSGNSQESVTEQDSKDSTYSLSSTLTLSKADYEKHKVYACEVTHQGLSSPVTKSFNRGEC
notes: Full IgG1; also called Ab3 YTE
On to B5, for which the Kd in test [1] was 235 nM; in test [2] it was 800 nM; in test [3] it was 70 nM; in test [4], 1600 nM; in test [5], 140 nM; in test [6], 6100 nM. The Kd in test [7] stood at 2800 nM.
